According to US20250243277A1 (AVACTA LIFE SCIENCES, published 2025):

What was measured:
[1] = target: T1, human PD-L1-Fc (R&D Systems) (human, UniProt Q9NZQ7 19-239); experiment: PD-L1 binding ELISA (direct binding, absorbance 450nm - 630nm rises with the Affimer concentration). Column head on the sheet reads 'IC50 nM' although the curve is a half-maximal binding curve; the text does not name the PD-L1 reagent on the plate
T1 construct: Bought from R&D Systems; Biotinylated in-house for the phage selection; also called huPD-L1-Fc; human PD-L1-Fc antigen; not shown: Fc part of the bought fusion
T1 sequence (Q9NZQ7 19-239 limits assumed): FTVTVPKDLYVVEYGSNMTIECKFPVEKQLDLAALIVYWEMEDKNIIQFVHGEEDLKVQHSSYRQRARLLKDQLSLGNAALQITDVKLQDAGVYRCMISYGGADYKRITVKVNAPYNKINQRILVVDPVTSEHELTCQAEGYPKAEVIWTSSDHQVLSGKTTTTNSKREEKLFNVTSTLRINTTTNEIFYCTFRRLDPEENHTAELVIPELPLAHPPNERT

[2] = target: T1, human PD-L1-Fc (R&D Systems); experiment: SPR (Biacore); huPD-L1-Fc captured on Protein A chip, Affimer as analyte 0.125 to 2 nM; monomer, huPD-L1-Fc captured on Protein A chip
Experimental: (§1) Secreted AFFIMER® clones were purified from supernatant using Ni Sepharose Excel resin (Cytiva) as described in Example 2 and run-on SEC-HPLC to assess their purity and molecular weight (FIG. 11). BIACORE™ was run using a sensor chip Protein A (Cytiva) capturing huPD-L1-Fc (R&D System), and AFFIMER® clones were run in solution as analyte increasing from 0.125 to 2 nM titration and a dissociation time of 2000 seconds. Regeneration of the antigen captured on the chip was performed using a 10 mM glycine pH1.5 solution. […] Avidity was further shown in both the PD-L1 binding ELISA and the Promega cell-based assay, with the ILF dimer blocking the PD-L1:PD1 interaction more strongly than a mammalian produced monomer (FIGS. 13-14).

[3] = target: T1, human PD-L1-Fc (R&D Systems); experiment: SPR (Biacore): huPD-L1-Fc captured on a Protein A sensor chip, HEK-expressed Affimer as analyte rising from 0.125 to 2 nM, 2000 s dissociation
Experimental: as §1

B1: Clone 80 monomer (mammalian, HEK-expressed) (designed binder)
chain: MIPGGLSEAKPATPEIQEIVDKVKPQLEEKTGETYGKLEAVQYKTQVVRRKHFPQWPGTNYYIKVRAGDNKYMHLKVFKSLDLQPREVFQEDLVLTGYQVDKNKDDELTGF
notes: also called mammalian produced monomer; mammalian expressed AFFIMER Clone 80 monomer
Work on B1 yielded an IC50 [1] of 0.26 nM, a Kd [2] of 0.54 nM and a koff [3] of 0.0014 s⁻¹. It also gave a kon [3] of 2.58e+06 M⁻¹ s⁻¹.
